Reference: PMC8469834

What was measured:
[1] = biological target: CzcR3, the response regulator of two-component system CzcRS3 (Pseudomonas putida KT2440) (UniProt F6KX51); experiment: electrophoresis analysis; purified His-tagged CzcR3 alone, in vitro; kind of gel and conditions not told in the text (Figure S1)
[2] = tested on: T1, CzcR3 (Pseudomonas putida KT2440), ORF:67c4da9b; experiment: EMSA; settings: 10 mM Tris-HCl pH 8.0, 50 mM KCl, 5 mM MgCl2, 5% glycerol, 28 °C 20 min; EMSA 10 nM FAM probe (carbamyl phosphate with CzcR3); footprinting 40 nM probe, about …
T1 sequence: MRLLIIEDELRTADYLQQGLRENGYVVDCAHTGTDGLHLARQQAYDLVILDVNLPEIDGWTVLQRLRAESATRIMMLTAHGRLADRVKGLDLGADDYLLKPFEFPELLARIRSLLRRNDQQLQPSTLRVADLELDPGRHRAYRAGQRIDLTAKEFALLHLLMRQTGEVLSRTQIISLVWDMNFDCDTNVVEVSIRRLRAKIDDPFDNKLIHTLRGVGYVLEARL

[3] = tested on: T1, CzcR3 (Pseudomonas putida KT2440), ORF:67c4da9b; experiment: DNase I footprinting; settings: 10 mM Tris-HCl pH 8.0, 50 mM KCl, 5 mM MgCl2, 5% glycerol, 28 °C 20 min; EMSA 10 nM FAM probe (carbamyl phosphate with CzcR3); footprinting 40 nM probe, about …
[4] = tested on: T2, CadR (Pseudomonas putida KT2440), ORF:5b9d404e; experiment: EMSA; settings: 10 mM Tris-HCl pH 8.0, 50 mM KCl, 5 mM MgCl2, 5% glycerol, 28 °C 20 min; EMSA 10 nM FAM probe (carbamyl phosphate with CzcR3); footprinting 40 nM probe, about …
T2 sequence: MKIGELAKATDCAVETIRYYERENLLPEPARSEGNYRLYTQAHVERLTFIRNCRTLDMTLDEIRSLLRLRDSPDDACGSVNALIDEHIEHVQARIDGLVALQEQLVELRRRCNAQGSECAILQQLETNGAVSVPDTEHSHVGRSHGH

[5] = tested on: T2, CadR (Pseudomonas putida KT2440), ORF:5b9d404e; experiment: DNase I footprinting; settings: 10 mM Tris-HCl pH 8.0, 50 mM KCl, 5 mM MgCl2, 5% glycerol, 28 °C 20 min; EMSA 10 nM FAM probe (carbamyl phosphate with CzcR3); footprinting 40 nM probe, about …

Row | Substance | stoichiometry N [1] | binding [2] | binding [3] | binding [4] | binding [5]
1 | CzcR3, the response regulator of two-component system CzcRS3 (from UniProt F6KX51 1-224) (natural protein) | 2 | – | – | – | –
2 | GATTATCGAACTTATTGGGCGTTGACTGTCCTGTACCCAGCCGTGCAAAGCTGCTTCTGCAACGAACCGCAGTGCGTCATTACAAAATTGTAATCTTGCCGCCACCGCCCCGATAACCAGCCCTTTCTACAGTCCCTGGCCAATGCT (double strand) [czcC2 (czcCBA2) promoter probe] | – | binds | binds | – | –
3 | GTATCGAAATCATCGTGTCGGGTTGGGTTTCCCAGTATTTACGGGCATTACAAAGCTTTCTTACGAAATTGTAATTTTCTAGCCACCCCTCTGATAGCTACCGCTCATTAGAGTGCCATCACCTAATCAAGTGGGGCTTGGCAGCTGTTTCGGCGTTCTCGCCAAGCTTTATCGAAGTTTGTGCACGAGGACCATCAAAGTGCCCCGGTATAACCGCA (double strand) [czcC1 (czcCBA1) promoter probe] | – | binds | binds | – | –
4 | TGTAAAACGACGGCCAGTTACAGGCGCGGGTTTACTCGCGAAGAGGCCCGAACAGACAGCCAGATAACAGCAGAATTACAAATCCGTTATCTGCACCGCAGGCCTTTTTTCATGCCGTAACATTGGGGCGCTTGACAAAGATGTCACTACAAAGTCAAGAATCGTCCCCTTTCAACATACCGAGCCCCCCATG (double strand) [czcRS3 (czcR3) promoter probe, mutated CadR site] | – | – | – | no binding | –
5 | TGTAAAACGACGGCCAGTTACAGGCGCGGGTTTACTCGCGAAGAGGCCCGAACAGACAGCCAGATAACAGCAGAATTACAAATCCGTTATCTGCACCGCAGGCCTTTTTTCATGCCGTAACATTGGGGCGCTTGACCCTGATGTCACTACAGGGTCAAGAATCGTCCCCTTTCAACATACCGAGCCCCCCATG (double strand) [czcRS3 (czcR3) promoter probe, native] | – | binds | binds | binds | binds
